A protein production outcome set (Wang et al. 2014)

assay: label from the status in PepcDB records

| Sequence | protein production |
| --- | --- |
| MANLGMTGVADGNNSEQTYLGQINYQDQTITKASAKKLNREIDLQRASQLTLWAMPMVGMYQSYNSTIALFDLQEGDAPIIGLHEGYDGVYPFLTANVTTPYTISLVDLSETGPYVVNIPAGSIFGVANNAWQEPIKEIGSGNKETLLFVGPGQEYPKDFDGEVIQSDTNQILYFYRVLGVGAEAEKLKTAVTAYKLSDVANPPQVKFVIYKPKASDADVTIATQPRGMAYWEVVNQYIQNEPMADRDRFFYAWLKDLGIEKGKAFNPTPYQKEILLEGVNTGMAMAQSLAFNKTKKKFSSSLYGSDSGWEGVLAGMDPKIDLDTYSMINERTAYTYEAVTTSAGMIVENPGHGSAYIGSYYDADGNALMGGKNYTLHIEPNPPAANFWSITVYDIKNRLIIRNEIKRSDLSSRSESLVMNSDGSVDLYFGPEAPEGKEGNWIQSNDGESYFMYLRLYGPEQEYFDQTYPMNKIDKTKLEHHHHHH | failed |
| MANLWIHALTVFMGFFAIMNPIANVPIFLSLTEGDDKKTTAMVASRALLLAFLIVTIFSVAGKLIFDLFGITLPAFQITGGLLVFLIGFHMLQGDQSSVQHPSETGKKKSPEAALSVTVSPLAMPILAGPGTIATAMNFSTGENFMEMAVTIVVFGVLCLITYVLFVSGEKFVTYIGASALGVITRMMGLILAVIGAQMVIAGIHGAFGLGAG | failed |
| MANNSPNAAVSVQSPTHQQALACLRELVGHPEAQFHDGQYEAIEALVDAGRRALVVQRTGWGKSAVYFVASLLLRRRGSGPTLIVSPLLALMRDQVAAAARAGVRAVAINSANALEWDTVLAQLAADEVDVLLVSPERLTNPSFRENQLPELIRRTGLLVIDEAHCISDWGHDFRPDYRRIADLIAQLPESVPVLATTATANSRVVHDIEEQLGAGVLTIRGALGRESLRLGVLTLPDSRDRLGWLLTHLADMPGSGIIYTLTVSAAEDTARLLAEAGHNVLSYTGRTDPADRERAEQLLKDNQVKALVATSALGMGFDKPDLGFVIHLGAPSSPVAYYQQVGRAGRGAANADVLLLPGSEDREIWQYFATASMPSAEKAAAVLGVLGEAGSALSTVALEARVDLRRTPLELLLKVLAVDGAVERVGGGWRSTGQPWNYDAERYARIAEARVDEQDSMVIYQDTAGCRMEYITSVLDDETAASCGRCDNCAGRWFPVDVAASAADAAGQTLRRAGIAVEPRLQWPSGMDRLGVAAKGKIKPDESVSEGRILARLTDLGWGGALRELFAAGAPDHAVDPAMLQACVQVLREWSGAEGGTPWSGVGRPAAVVSIPSRSKPQLVESLAQGIAGIGRMPYLGQLQPQYGGPTGARGGNSAYRLAGVWDRLVVGPELAQALAGTGGQPVLLVDDLIDSRWTMTVSARALRQAGVSAVLPLALAQAG | failed |
| MANSLRTLFSVSTHGVFLNKRSSYRVRKVFVGMPLRICSEIPRFVSVSCIRSDMCGIMMLGKDVHDLLETSSGGNVEKGFLRWRNGGGMYHRSALIDSSALVEFGAVVHQEAILGAEVHIGSNTVIGSSVKIGPSTKIGNCSIGDLCVIHNGVCIGQDGFGFYVDDNGNMVKKPQTLNVKIGNRVEIGANTCIDRGSWRDTVIGDDTKIDNLVQIGHNVIIGKCCLFCGQVGIAGSAEIGDFVALGGRVAVRDHVSIVSKVRLAANSCVTKNITEPGDYGGFPAQEETITYSVCQTQED | failed |
| MANSTESGSLQSSSTVKVRSHYRPNNGTGSPGGRPRPKRGFLPLGKGLVWGGLVTLTATVAAIAGVGIGFFTPGPKGLVQQVIPGQSAGVEAGQADLFPYHISRPVNILVMGIDRVEPTEEEPNVDEFGGRSDTMLLVRFDPRENGLKLLSIPRDTRVFIPDVGYTKINDANAYGGPQLAARVINRNLGEVPIDRYVRVTTDALQELVDLVGGVEVFVPRPMFYEDKTQQLLIDLPAGLQTLNGQQAEQFVRFRYDANGDIGRVQRQETLLKALQNRLSHPSMITRIPKAIGIMQKTVDTNLTMEEILALVNFGRQLDRQEVQMVMLPGRFSQPAEFDGRSYWVMSDVGKRQVLRNYFDVIEEVPTWAETPGRSPESLRIALQNATDDPQALERVKEYLQSKDFRNFYETSESPQLLAETKILVQRGDLDGAHYLRQTLGGGVVEASSVGDLGSDLTIQVGMDLDQWLKESTPVDDSTPQF | failed |
| MANYPKELPAQTQSRQPGIESEMNPSPVYEYEDYKGADKLKGKVALITGGDSGIGRAVSVAYAKEGADIAIVYKDEHEDAEETKKRVEQEGVKCLLIAGDVGEEEFCNEAVEKTVKELGGLDILVNNAGEQHPKESIKDITSEQLHRTFKTNFYSQFYLTKKAIDYLKPGSAIINTTSINPYVGNPTLIDYTATKGAINAFTRTMAQALVKDGIRVNAVAPGPIWTPLIPATFPEETVAQFGQDTPMGRPGQPVEHVGCYVLLASDESSYMTGQTLHVNGGNFVT | not failed |
| MANYYEPPASGNRRDAVKGYNSGSFDDSAGDQSQTNDYQLKIKKSKSVPNADRAASRSWSFSDPESRRKRRVAGYKVYSVEQKMKGSIRKSFKWFKDIIGIS | failed |
| MAPCAGGTCRTASERRHLQCRSRPSQGRQGGSKSAGRGFIAAEFPCLDGGEPISTARAFRDRNREFSPAMRAILDIVLIILDLYIWLLIASAILSWLIAFNVVNTRNQFVGAVSEFLYRITEPLLAPIRNLLPSLGGLDISPIILILLIMFLQRVITYYIYPAVF | failed |
| MAPETLAPDTTGLEVRLRLTDDWFTACDLGALLPGRGVAALLPDGGQVALFRDRDGGLYAIDNRDPFTGAAVLSRGLTGTHQGRPFVASPLLKQRFDLTTGECLDDAAMRVETYRVQAVRAVPAVNAVNPALEHHHHHH | failed |
| MAPLGGAPRLVLLFSGKRKSGKDFVTEALQSRLGADVCAVLRLSGPLKEQYAQEHGLNFQRLLDTSTYKEAFRKDMIRWGEEKRQADPGFFCRKIVEGISQPIWLVSDTRRVSDIQWFREAYGAVTQTVRVVALEQSRQQRGWVFTPGVDDAESECGLDNFGDFDWVIENHGVEQRLEEQLENLIEFIRSRL | failed |
| MAPNASCLCVHVRSEEWDLMTFDANPYDSVKKIKEHVRSKTKVPVQDQVLLLGSKILKPRRSLSSYGTDKEKTIHLTLKVVKPSDEELPLFLVESGDEAKRHLLQVRRSSSVAQVKAMIETKTGIIPETQIVTCNGKRLEDGKMMADYGIRKGNLLFLASYCIGG | failed |
| MAPQASTRENACRSEMLSASSRGSGWPCQENPDLSIPPLRPIALSRRNGWWSGAAAVKLASGHCTGRWKMSFWYVVDAVAVGIILPWIIATYRLLEAFKRGTGAGLTKWAIYAAVCVPAMLLVMWGIQNLR | failed |
| MAPRTNRPRTNRPRTGRPPAPDAPAAPDAPTAPDARRRRLPMRFLLPSLLLLAVMAMLMLRGFVHSEILADHRIRPPAATDQVPEKILDGGPVIDTRGGRTTSLSLPDHRLVLTFDDGPDPQWTPKVLDVLKKHHAHAVFFVTGTMTSRHPDLVRRLVAEGHEVGVHTFNHPDLAYQSKKRIDWELSQNQLALAGAAGIRTSLFRPPYSSFADAMDNESWPVTEYIGTRGYITVVNNTDSEDWQKPGVDEIIRRATPRGGKGAVVLMHDSGGDRHQTVQALDRFLPELQRRGYEFENLSEALGAPSAHTPVTGVDRWKGNAWIFLVQAADRITGMLVVGLAVIGGLVLTRFGLMLLLSGTHARRVRRPDFRWGPAPVTEPVSVLVPAYNEAKCIENTVRSLTASEHPVEVIVVDDGSSDGTARLVESLRLPDVRVVRQHNAGKPAALNRGLANARHDLIVMMDGDTVFEPATVRELVQPFADPRVGAVAGNAKVGNRDSLIGAWQHIEYVMGFNLDRRMYDLLRCMPTIPGAVGAFRRSALERVGGMSDDTLAEDTDITMALHRDGWRVVYAEKARAWTEAPESVQQLWSQRYRWSYGTMQAIWKHRRALVERGPSGRFGRVGLPLVALFMVVAPLLAPLIDVFLLYGVIFGPTQKTVLAWLGVLAVQAVCAAYAFRLDRERMTHLVSLPLQQILYRQLMYVVLLQSWITALVGGRLRWQKLRRTGVVEAPGSIPQQRTAGSESERRPVG | failed |
| MAPVIRRAKEIDLYCLNSLMYKLHDEHHQQCPDLFKTASEIEEEKSIARYLDDPECMVYVAEMDDVIIGFITGHFCELISTVSKLVMMATIDELYIEKEYRREGVAEQLMMRIEQELKDYGVKEIFVEVWDFNKGALEFYNKQGLNEHIHYLRKPLNRLEHHHHHH | not failed |
| MAQAQTQGQEEEQKKKILIVVTHGPEDLDRTYAPLFMASISASMEYETSVFFMIKGPKLLDKKWQEEERKKGGNPFIHFFDMAKENGVKMYVCVQSLKDMCHMKEDDVVEGIELVGGSTLIDLTLEADRTLFF | not failed |
| MAQEDVTAVATNGAGPVETHLVFTEFKQMLLVEAQKVGDAVTFYKSAFGAIESGHSLYPKRKLDQELPHVLSSELNLAGSSFVVCDVSSLPGFSTAKSEGSGVTFLLGTKDAEAAVAKAVDAGAVKVEVTEAEVELGFKGKVTDPFGVTWIFAEKKTVITDENKEV | not failed |
| MAQEVSPESYKDLVLFLATAGIVAPIFKRLKINPILGYLLAGVILGPFGLGRFIPYAPWLDYFTVDNPDEIAQLAEFGVVFLLFMIGLELSWERLRLMRRWVFGLGAVQVIGCSLALGAGGMLLGLEPVVALTIGAALTLSSTAIAVPVLAERRRLHSEAGRATFSVLLFQDLAVAPILITLAILGRGNGSFQLQDLLALAPAALGLAVIVLVGRLALRPMLKSVAKAKSEEMFMAACLLVIIGAGMVAALSGLSMALGAFVAGVLLAETEYRHEVEVKIEPFKGLLLSLFFVSLGIRLDLSLLAAQPAAILGTALGLLVLKTAVVFGSGLLMGLNRRAAIEAALILAAGGEFAFVLLDNAMSAQVVPPAIGQAVLVSATLTMFLIPGLAALGGYLGRKNAPLPVSEAPPSTANEPDRLGPEPAGQVLVIGYGRVGRLVGDMLGRHDLPWIAVEREARLVEQGRRDGARIYYGDASRLELLERCGLATARAVVVTMDAFEVAEAVVVAARGARPDVPIVVRARDARHAARLYELGATDAVPETIEASLQLSEAVLVDIGVPMGLVIASIHERRDEYRKKLNRPDALGGRRRRLRDATLR | failed |
| MAQIPFDLKHADFARLAEVGLRLPGLREVKTLTQTSWIEAPTTIIGTVVSGAELQVGAFCSLSGGTLNNVHIGRYSSIAAGTIIGVHEHPTSWLTTSRTSYWPQVYGWDELIAPDRAAEIRAGKRPFTRSCPITEIGHDVWIGQGCFIKSGVRIGHGSVIGARATVTKDVPPYSIVLGTPGRVVRTRVPEPLIERLLAVEWWRYSIYDLFAAPFDDVARALDVIEDRIAEGAIKPYEAPLVTPADLAEPLGLAARLAARFPRPLARAS | failed |
| MAQIVTSTKSCTVNPLRMSQPLGAALAFMGLRNCMPLLHGSQGCTSFGLVLFVRHFRESIPLQTTAMSEVATVLGGFENVEQAIVNIVGRTKPDVIGICTTGVTEIKGDDLDGYIKMVRANHPELANVALVPVSTPDFKGAFEDGFAATVTRIVETLVETPAEGAAPDADRINVLAGSHLTPGDIDELRDIIEAFGLVPTFLPDISGSLDGHVPDDFTPTTHGGVSVAEVVAMGGAGHTLAFGEHMRKAAAALEAKAGVPFTLLSRVTGLAAADELMATLAKISGRPVPPKYRRQRSQLVDAMLDGHFYFGGKSVAIGAEPDMLLNIGGWLADMGCTVSAAVTTTTSPSLAQVPSDEVLIGDLEDLERRAEDCDLLVTHSHGRQAAERLSVPLFRMGLPMFDRLGAVHQVAVGYRGTRDLIFAIGNLFIANIKEPDVNSWRSASACPDQTDAPAKAH | failed |
| MAQNNENALPDITKSITLEAPIQKVWETVSTSEGIAKWFMPNDFQLKEGQEFHLQSPFGPSPCKVLAVQAPTELSFEWDTEGWVVTFQLEDLGEKTGFTLIHSGWKEPNEVIGKANEKSSVVRGKMDGGWTGIVNERLRKAVEELEHHHHHH | not failed |
| MAQTEKLTDYVNPFVGTDGYGNVYPGAQIPFGGIQISPDTDSRFYDAASGYKYNHLTLMGFSLTHLSGTGIPDLGDFLFIPGTGEMKLEPGTHEDPDQGYRSRYSHDKEWASPNYYAVELADYGVKAEMTSGVRSGMFRFTYPESDNAFIMIDMNHTLWQSCEWSNLRMINDSTITGYKLVKGWGPERHVYFTLEHHHHHH | failed |
